Data reported in the supplement of paper PMC9233669.
Fewer inactive variants are shown than the library holds.

Assays:
biotinyl-Phe-oxazolone = assay: self-aminoacylation, catalytic enhancement (BFO) (fold over background); higher = more active; k-Seq, kA / k0A0; sequences stand for … in GGGAAUGGAUCCACAUCUACGAAUUC…UUCACUGCAGACUUGACGAAGCUG
Method in brief: (§1)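 The uncatalyzed rate is the low-activity peak of a bimodal Gaussian fit, and catalytic enhancement is median kA divided by it. The kA values came from pseudo-first-order fits, with 1000 bootstraps, of per-sequence fraction reacted measured by streptavidin capture, triplicate qPCR and Illumina sequencing. Mutagenized RNA pools with a 21-nt variable region (0.43 μM) were reacted with each biotinyl-aminoacyl-oxazolone at 2–1250 μM in 50 μL HEPES/NaCl/KCl/MgCl2/CaCl2 buffer with 5% acetonitrile, pH 6.9–7.0, for 90 minutes at room temperature.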

biotinyl-Ile-oxazolone = assay: self-aminoacylation, catalytic enhancement (BIO) (fold over background); higher = more active; k-Seq, kA / k0A0; sequences stand for … in GGGAAUGGAUCCACAUCUACGAAUUC…UUCACUGCAGACUUGACGAAGCUG
Method in brief: as §1

biotinyl-Met-oxazolone = assay: self-aminoacylation, catalytic enhancement (BMO) (fold over background); higher = more active; k-Seq, kA / k0A0; sequences stand for … in GGGAAUGGAUCCACAUCUACGAAUUC…UUCACUGCAGACUUGACGAAGCUG
Method in brief: as §1

biotinyl-Val-oxazolone = assay: self-aminoacylation, catalytic enhancement (BVO) (fold over background); higher = more active; k-Seq, kA / k0A0; sequences stand for … in GGGAAUGGAUCCACAUCUACGAAUUC…UUCACUGCAGACUUGACGAAGCUG
Method in brief: as §1

biotinyl-Leu-oxazolone = assay: self-aminoacylation, catalytic enhancement (BLO) (fold over background); higher = more active; k-Seq, kA / k0A0; sequences stand for … in GGGAAUGGAUCCACAUCUACGAAUUC…UUCACUGCAGACUUGACGAAGCUG
Method in brief: as §1

biotinyl-Trp-oxazolone = assay: self-aminoacylation, catalytic enhancement (BWO) (fold over background); higher = more active; k-Seq, kA / k0A0; sequences stand for … in GGGAAUGGAUCCACAUCUACGAAUUC…UUCACUGCAGACUUGACGAAGCUG
Method in brief: as §1

| Sequence | self-aminoacylation (biotinyl-Phe-oxazolone) | self-aminoacylation (biotinyl-Ile-oxazolone) | self-aminoacylation (biotinyl-Met-oxazolone) | self-aminoacylation (biotinyl-Val-oxazolone) | self-aminoacylation (biotinyl-Leu-oxazolone) | self-aminoacylation (biotinyl-Trp-oxazolone) |
| --- | --- | --- | --- | --- | --- | --- |
| AAGUUUGCUAAUAGUCACAAA [Fam3.1 aminoacylation ribozyme variant] | 1.34 | 1.21 | 1.32 | 1.09 | 1.22 | 1.15 |
| AAGUUUGCUAAUAGUCACAAC [Fam3.1 aminoacylation ribozyme variant] | 1.47 | 0.673 | 0.6 | 0.621 | 0.637 | 0.593 |
| AAGUUUGCUAAUAGUCCAAAG [Fam3.1 aminoacylation ribozyme variant] | 3.72 | 1.21 | 1.34 | 1.18 | 0.966 | 1.75 |
| AAGUUUGCUAAUAGUCCGAAG [Fam3.1 aminoacylation ribozyme variant] | 4.75 | 1.1 | 1.02 | 1.02 | 0.863 | 1.89 |
| AAGUUUGCUAAUAGUCGCAAG [Fam3.1 aminoacylation ribozyme variant] | 32 | 1.33 | 1.47 | 1.15 | 1.01 | 7.99 |
| AAGUUUGCUAAUAGUCGCACC [Fam3.1 aminoacylation ribozyme variant] | 1.29 | 0.81 | 0.569 | 0.756 | 0.718 | 0.849 |
| AAGUUUGCUAAUAGUCGCAUU [Fam3.1 aminoacylation ribozyme variant] | 1.63 | 1.37 | 1.25 | 1.22 | 1.27 | 1.29 |
| AAGUUUGCUAAUAGUCGCGCG [Fam3.1 aminoacylation ribozyme variant] | 20.9 | 3.47 | 3.95 | 2.94 | 4.77 | 5.74 |
| AAGUUUGCUAAUAGUCGCUAG [Fam3.1 aminoacylation ribozyme variant] | 1.68 | 0.852 | 0.813 | 0.852 | 0.809 | 1.05 |
| AAGUUUGCUAAUAGUCGGUAG [Fam3.1 aminoacylation ribozyme variant] | 1.66 | 0.974 | 0.878 | 0.771 | 1.03 | 0.993 |
| AAGUUUGCUAAUAGUCUCCAG [Fam3.1 aminoacylation ribozyme variant] | 1.59 | 1.1 | 0.855 | 0.947 | 0.909 | 1.02 |
| AAGUUUGCUAAUAGUGGCAAU [Fam3.1 aminoacylation ribozyme variant] | 1.43 | 1.08 | 1.16 | 1.16 | 0.961 | 0.811 |
| AAGUUUGCUAAUAGUGGCGAG [Fam3.1 aminoacylation ribozyme variant] | 1.2 | 0.939 | 0.875 | 0.88 | 1.09 | 0.531 |
| AAGUUUGCUAAUAGUGGCUAG [Fam3.1 aminoacylation ribozyme variant] | 1.52 | 0.811 | 0.777 | 0.862 | 0.65 | 0.748 |
| AAGUUUGCUAAUAGUGGUAAG [Fam3.1 aminoacylation ribozyme variant] | 0.868 | 0.992 | 0.769 | 0.801 | 0.788 | 0.724 |
| AAGUUUGCUAAUAGUUGCAAC [Fam3.1 aminoacylation ribozyme variant] | 0.862 | 1.06 | 0.933 | 0.83 | 0.853 | 0.841 |
| AAGUUUGCUAAUAUUCGCAAA [Fam3.1 aminoacylation ribozyme variant] | 0.994 | 1.2 | 1.75 | 1.32 | 1.25 | 2.04 |
| AAGUUUGCUAAUAUUCGCAAU [Fam3.1 aminoacylation ribozyme variant] | 1.32 | 1.31 | 1.11 | 1.05 | 1.16 | 1.33 |
| AAGUUUGCUAAUCGGCGCAAG [Fam3.1 aminoacylation ribozyme variant] | 2.32 | 0.842 | 1.03 | 1.14 | 1.05 | 0.944 |
| AAGUUUGCUAAUGGGCGCAAG [Fam3.1 aminoacylation ribozyme variant] | 0.784 | 0.937 | 0.695 | 0.874 | 1.08 | 1.5 |
| AAGUUUGCUAAUGGUCGAAAG [Fam3.1 aminoacylation ribozyme variant] | 1.03 | 0.687 | 0.723 | 0.897 | 0.591 | 0.713 |
| AAGUUUGCUAAUGGUCGCGAG [Fam3.1 aminoacylation ribozyme variant] | 8.04 | 1.21 | 1.15 | 1.27 | 1.59 | 1.82 |
| AAGUUUGCUAAUUGUAGCAAG [Fam3.1 aminoacylation ribozyme variant] | 0.987 | 0.854 | 0.979 | 1.03 | 0.95 | 1.02 |
| AAGUUUGCUAAUUGUCGCAAG [Fam3.1 aminoacylation ribozyme variant] | 1.37 | 0.834 | 0.788 | 0.846 | 0.764 | 1.06 |
| AAGUUUGCUAAUUGUCUCAAG [Fam3.1 aminoacylation ribozyme variant] | 1.05 | 0.937 | 0.943 | 0.881 | 0.852 | 0.743 |
| AAGUUUGCUACUAGUCCCAAG [Fam3.1 aminoacylation ribozyme variant] | 0.773 | 0.894 | 0.931 | 0.759 | 0.899 | 0.786 |

| Sequence | self-aminoacylation (biotinyl-Phe-oxazolone) | self-aminoacylation (biotinyl-Ile-oxazolone) | self-aminoacylation (biotinyl-Met-oxazolone) | self-aminoacylation (biotinyl-Val-oxazolone) | self-aminoacylation (biotinyl-Leu-oxazolone) | self-aminoacylation (biotinyl-Trp-oxazolone) |
| --- | --- | --- | --- | --- | --- | --- |
| AAGUUUGCUAGAAGUCGCAAG [Fam3.1 aminoacylation ribozyme variant] | 0.798 | 0.674 | 0.802 | 0.656 | 0.824 | 1.51 |
| AAGUUUGCUAGCAGUCGCAAG [Fam3.1 aminoacylation ribozyme variant] | 1.85 | 1.19 | 1.03 | 1.08 | 1.04 | 0.91 |
| AAGUUUGCUAGUAAUCGCAAG [Fam3.1 aminoacylation ribozyme variant] | 0.961 | 0.761 | 0.789 | 0.819 | 0.733 | 0.849 |
| AAGUUUGCUAGUAGUUGCAAG [Fam3.1 aminoacylation ribozyme variant] | 0.949 | 0.985 | 1.04 | 0.737 | 0.791 | 1.1 |
| AAGUUUGCUAUUAGUCCCAAG [Fam3.1 aminoacylation ribozyme variant] | 1.45 | 0.989 | 0.99 | 1.02 | 1.04 | 2 |
| AAGUUUGCUAUUAGUCGCUAG [Fam3.1 aminoacylation ribozyme variant] | 1.16 | 0.864 | 1.01 | 0.85 | 0.815 | 0.805 |
| AAGUUUGCUAUUAGUUGCAAG [Fam3.1 aminoacylation ribozyme variant] | 1.46 | 0.855 | 0.859 | 0.874 | 0.96 | 1.01 |
| AAGUUUGCUCAUUGUCGCAAG [Fam3.1 aminoacylation ribozyme variant] | 3 | 0.875 | 1.09 | 0.968 | 0.923 | 1.89 |
| AAGUUUGCUGAUAGUCGCAAU [Fam3.1 aminoacylation ribozyme variant] | 1.68 | 1.71 | 1.22 | 1.33 | 1.09 | 1.87 |
| AAGUUUGCUUAUAGUCGCGAG [Fam3.1 aminoacylation ribozyme variant] | 0.935 | 1.01 | 1.07 | 1.03 | 0.821 | 1.53 |
| AAGUUUGGGAAUAGUCGCAAG [Fam3.1 aminoacylation ribozyme variant] | 1.95 | 1.32 | 0.876 | 1.25 | 1.05 | 1.69 |
| AAGUUUGGUAAUACUCGCAAG [Fam3.1 aminoacylation ribozyme variant] | 1.07 | 1.06 | 0.998 | 1.04 | 0.673 | 0.719 |
| AAGUUUGGUAAUAGGCGCAAG [Fam3.1 aminoacylation ribozyme variant] | 0.618 | 0.692 | 0.705 | 0.775 | 0.761 | 0.712 |
| AAGUUUGGUAAUAGUCGCAAA [Fam3.1 aminoacylation ribozyme variant] | 1.72 | 1.88 | 1.66 | 1.44 | 1.44 | 1.75 |
| AAGUUUGGUAAUAGUCGCAAC [Fam3.1 aminoacylation ribozyme variant] | 2.86 | 1.48 | 1.19 | 1.47 | 1.16 | 1.84 |
| AAGUUUGGUAAUAGUCGCAGG [Fam3.1 aminoacylation ribozyme variant] | 2.19 | 1.47 | 1.39 | 1.4 | 1.7 | 2.18 |
| AAGUUUGGUAAUAGUCGCCAG [Fam3.1 aminoacylation ribozyme variant] | 4.77 | 1.32 | 1.1 | 1.32 | 1.27 | 2.18 |
| AAGUUUGGUAAUAGUCGGAAG [Fam3.1 aminoacylation ribozyme variant] | 1.11 | 0.893 | 0.771 | 0.815 | 0.717 | 1.08 |
| AAGUUUGUCAAUAGUCGCAAG [Fam3.1 aminoacylation ribozyme variant] | 3.72 | 2.03 | 1.87 | 1.78 | 2.25 | 1.95 |
| AAGUUUGUUAAUUGUCGCAAG [Fam3.1 aminoacylation ribozyme variant] | 0.994 | 1.09 | 0.992 | 0.926 | 0.933 | 0.92 |
| AAGUUUGUUAGUAGUCGCAAG [Fam3.1 aminoacylation ribozyme variant] | 1.02 | 0.852 | 0.841 | 0.823 | 1.06 | 0.675 |
| AAGUUUUCUAAUAGUAGCAAG [Fam3.1 aminoacylation ribozyme variant] | 2.5 | 1.5 | 1.29 | 1.34 | 1.33 | 1.8 |
| AAGUUUUCUAAUAGUCGCAUG [Fam3.1 aminoacylation ribozyme variant] | 3.44 | 1.78 | 1.4 | 1.2 | 1.85 | 1.91 |
| AAGUUUUCUAAUAGUCGGAAG [Fam3.1 aminoacylation ribozyme variant] | 1.99 | 1.44 | 1.25 | 1.31 | 1.14 | 1.21 |
| AAGUUUUCUACUAGUCGCAAG [Fam3.1 aminoacylation ribozyme variant] | 3.09 | 1.99 | 1.67 | 1.51 | 1.79 | 1.86 |
